Source: PMC2866327 (2010)
Square brackets hold non-standard residues; d marks the D form. Ends that are not written are not given here.

Biological target: insulin-degrading enzyme (recombinant human IDE) (human, UniProt P14735 1-1019)

B1: retro-inverso peptide hydroxamate Xaa-Arg-Tyr with Phe at P1' (peptide)
peptide: Phe-[dR]-[dY]
modifications: not fully specified (residue 1, N-terminus); also: retro-inverso (reversed backbone)
**Q.** B1 was tested. Which Ki did it give?
**A.** Its Ki is 20 µM.
